Laboratory results reported in the supplement of paper PMC9732359.
± gives the uncertainty stated by the source.

Assay: protein stability index of a GFP-peptide fusion (yeast GPS) (PSI 1-4); higher = more stable; sorted into four equal gates, so the index is relative within each strain
How it was run: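 For each peptide, the protein stability index sums the read frequency in every gate after multiplying it by the gate number. Read frequencies came from plasmids that were PCR-amplified from each gate and Illumina-sequenced, with reads assigned to strains by barcodes. The gates were four equal bins of GFP/Cherry fluorescence ratio applied to mid-log yeast in leucine-free medium carrying a pooled library of tiled 17-residue yeast protein peptides fused downstream of GFP on a Cherry-expressing plasmid.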

VKQLENVSSNIVKNAEQ [RPS20]
protein stability index (doa10∆): 2.58 ± 0.092
protein stability index (pdr5∆): 2.84 ± 0.081
protein stability index (san1∆): 3.15 ± 0.049
protein stability index (ubr1∆): 2.86 ± 0.056

FNRALDQSISKLQSWDK [NNF1]
protein stability index (doa10∆): 1.63 ± 0.066
protein stability index (pdr5∆): 1.49 ± 0.068
protein stability index (san1∆): 1.51 ± 0.085
protein stability index (ubr1∆): 1.78 ± 0.051

YLIDHIKVDGAVGNLGN [RPL22B]
protein stability index (doa10∆): 2.41 ± 0.23
protein stability index (pdr5∆): 2.49 ± 0.14
protein stability index (san1∆): 2.53 ± 0.066
protein stability index (ubr1∆): 2.61 ± 0.24

RVRNKDIRKFLDGIYVS [RPL9A]
protein stability index (doa10∆): 1.91 ± 0.081
protein stability index (pdr5∆): 2.07 ± 0.087
protein stability index (san1∆): 2.05 ± 0.11
protein stability index (ubr1∆): 2.23 ± 0.062

LNNNNNNNNTTTTTTTT [SWI1]
protein stability index (doa10∆): 3.06 ± 0.062
protein stability index (pdr5∆): 3.27 ± 0.062
protein stability index (san1∆): 3.33 ± 0.081
protein stability index (ubr1∆): 3.22 ± 0.054

VSTRAIDLLWKGKTPKN [PRP28]
protein stability index (pdr5∆): 1.48 ± 0.12
protein stability index (san1∆): 1.18 ± 0.12
protein stability index (ubr1∆): 1.16 ± 0.14

LSATQFTQPALTLMEKA [FAS1]
protein stability index (doa10∆): 2.37 ± 0.073
protein stability index (pdr5∆): 2.56 ± 0.058
protein stability index (san1∆): 2.7 ± 0.049
protein stability index (ubr1∆): 2.58 ± 0.054

QYILQIVSFIVNCFHED [YJL039C/NUP192]
protein stability index (doa10∆): 1.42 ± 0.061
protein stability index (pdr5∆): 1.91 ± 0.062
protein stability index (san1∆): 2.18 ± 0.077
protein stability index (ubr1∆): 2.3 ± 0.057

LIIDGFKSYATRTVITD [SMC2]
protein stability index (doa10∆): 2.82 ± 0.11
protein stability index (pdr5∆): 3.21 ± 0.09
protein stability index (san1∆): 2.99 ± 0.071
protein stability index (ubr1∆): 3.12 ± 0.083

KKSVNKLDKQINMADRS [POP6]
protein stability index (doa10∆): 2.73 ± 0.062
protein stability index (pdr5∆): 2.94 ± 0.08
protein stability index (san1∆): 2.63 ± 0.079
protein stability index (ubr1∆): 2.83 ± 0.054

AFNDSCVNLSLFDARFE [SRB8]
protein stability index (doa10∆): 3.11 ± 0.09
protein stability index (pdr5∆): 3.15 ± 0.059
protein stability index (san1∆): 3.39 ± 0.091
protein stability index (ubr1∆): 3.14 ± 0.051

VDLLQFPWLNAIKYRPT [POP3]
protein stability index (doa10∆): 2.33 ± 0.07
protein stability index (pdr5∆): 2.42 ± 0.091
protein stability index (san1∆): 2.36 ± 0.15
protein stability index (ubr1∆): 1.84 ± 0.11

MLETAGFSMNNPYNIVP [SMC3]
protein stability index (doa10∆): 3.17 ± 0.11
protein stability index (pdr5∆): 3.18 ± 0.09
protein stability index (san1∆): 3.19 ± 0.07
protein stability index (ubr1∆): 3.09 ± 0.051

MNETLNLKVELKEQSEQ [SMC4]
protein stability index (san1∆): 2.14 ± 0.29
protein stability index (ubr1∆): 3.42 ± 0.12

LKKRYDLSYNFNVHEVP [YMR129W/POM152]
protein stability index (doa10∆): 2.78 ± 0.05
protein stability index (pdr5∆): 2.6 ± 0.056
protein stability index (san1∆): 2.7 ± 0.058
protein stability index (ubr1∆): 2.82 ± 0.042

RCTKIIKGNGESDETTT [RPT1]
protein stability index (doa10∆): 3.18 ± 0.14
protein stability index (san1∆): 3.36 ± 0.038
protein stability index (ubr1∆): 3.54 ± 0.11

KPNLNYFKSILLNKNTG [SWI1]
protein stability index (doa10∆): 2.17 ± 0.058
protein stability index (pdr5∆): 2.19 ± 0.044
protein stability index (san1∆): 1.76 ± 0.066
protein stability index (ubr1∆): 1.75 ± 0.038

KHISASIDNDFSEEKAE [YAR002W/NUP60]
protein stability index (doa10∆): 3.04 ± 0.082
protein stability index (pdr5∆): 3.02 ± 0.065
protein stability index (san1∆): 3.23 ± 0.066
protein stability index (ubr1∆): 2.97 ± 0.059

IATDGGRICRPLIIVSD [RET1]
protein stability index (doa10∆): 2.01 ± 0.046
protein stability index (pdr5∆): 2.1 ± 0.037
protein stability index (san1∆): 1.73 ± 0.06
protein stability index (ubr1∆): 2.14 ± 0.038

MKNKAETTTEEDSENPS [ITC1]
protein stability index (doa10∆): 3.31 ± 0.19
protein stability index (pdr5∆): 3.27 ± 0.14
protein stability index (san1∆): 3.03 ± 0.13
protein stability index (ubr1∆): 3.31 ± 0.15

TIISPHKDIPEEDFYTV [DSN1]
protein stability index (doa10∆): 3.21 ± 0.095
protein stability index (pdr5∆): 3.23 ± 0.15
protein stability index (san1∆): 2.44 ± 0.28
protein stability index (ubr1∆): 3.19 ± 0.054

IKEKFDEFIKTHEDLPK [IRR1]
protein stability index (doa10∆): 2.7 ± 0.1
protein stability index (pdr5∆): 2.68 ± 0.095
protein stability index (san1∆): 2.62 ± 0.065
protein stability index (ubr1∆): 3.01 ± 0.071

CSRIIKIDKPIRTQVNT [RGR1]
protein stability index (doa10∆): 1.94 ± 0.067
protein stability index (pdr5∆): 2.31 ± 0.047
protein stability index (san1∆): 2.09 ± 0.059
protein stability index (ubr1∆): 2.1 ± 0.039

LQEKFLNQIATLKIHLK [IRR1]
protein stability index (doa10∆): 1.22 ± 0.12
protein stability index (pdr5∆): 1.4 ± 0.11
protein stability index (ubr1∆): 1.03 ± 0.093

PFKVFLDIGLQRTTTGA [RPL5]
protein stability index (doa10∆): 1.63 ± 0.07
protein stability index (pdr5∆): 2.04 ± 0.074
protein stability index (san1∆): 2.23 ± 0.076
protein stability index (ubr1∆): 1.53 ± 0.053

LTATPNSINKTTVPFKE [POP1]
protein stability index (doa10∆): 1.75 ± 0.061
protein stability index (pdr5∆): 2.44 ± 0.06
protein stability index (san1∆): 1.66 ± 0.14
protein stability index (ubr1∆): 2.48 ± 0.054

GNVFSPIDNNIIFASTK [SNU114]
protein stability index (doa10∆): 3.16 ± 0.062
protein stability index (pdr5∆): 2.97 ± 0.092
protein stability index (san1∆): 2.97 ± 0.052
protein stability index (ubr1∆): 2.95 ± 0.046

SALELVGQLNKVVDQLF [RPN6]
protein stability index (doa10∆): 2.84 ± 0.045
protein stability index (pdr5∆): 2.98 ± 0.065
protein stability index (san1∆): 2.82 ± 0.059
protein stability index (ubr1∆): 2.68 ± 0.042

RYQIMLPEQLKSGKFCS [SNM1]
protein stability index (doa10∆): 2.74 ± 0.071
protein stability index (pdr5∆): 2.08 ± 0.09
protein stability index (san1∆): 2.7 ± 0.07
protein stability index (ubr1∆): 2.12 ± 0.061

RNTYQSAMGKQAMGVFL [RPB2]
protein stability index (doa10∆): 1.62 ± 0.097
protein stability index (pdr5∆): 1.63 ± 0.11
protein stability index (san1∆): 1.53 ± 0.12
protein stability index (ubr1∆): 1.79 ± 0.052

SVRLFSFLDPLNYGNIC [YJL039C/NUP192]
protein stability index (doa10∆): 1.88 ± 0.053
protein stability index (pdr5∆): 2.21 ± 0.069
protein stability index (san1∆): 2.47 ± 0.061
protein stability index (ubr1∆): 2 ± 0.063

DDDDNNESSSNTTVISD [DIS3]
protein stability index (doa10∆): 3.01 ± 0.077
protein stability index (pdr5∆): 3.24 ± 0.081
protein stability index (san1∆): 2.97 ± 0.049
protein stability index (ubr1∆): 2.91 ± 0.05

QSSEDVITIKSRIRVKI [RPB7]
protein stability index (doa10∆): 2.4 ± 0.11
protein stability index (pdr5∆): 2.41 ± 0.075
protein stability index (san1∆): 2.51 ± 0.078
protein stability index (ubr1∆): 3 ± 0.12

KPMNKGQHKNNTSLNIN [SWP82]
protein stability index (doa10∆): 2.92 ± 0.092
protein stability index (pdr5∆): 2.84 ± 0.091
protein stability index (san1∆): 2.91 ± 0.066
protein stability index (ubr1∆): 2.98 ± 0.059

FQKFLTGHPKGAAGAWM [FAS2]
protein stability index (doa10∆): 1.31 ± 0.25
protein stability index (ubr1∆): 1.56 ± 0.18

DFSARTVISGDPNLELD [RPO21]
protein stability index (doa10∆): 3.29 ± 0.22
protein stability index (pdr5∆): 2.79 ± 0.21
protein stability index (san1∆): 2.58 ± 0.15
protein stability index (ubr1∆): 2.47 ± 0.13

EDFLHFIVAEYIQQKKV [SRB4]
protein stability index (doa10∆): 2.57 ± 0.1
protein stability index (pdr5∆): 2.79 ± 0.078
protein stability index (san1∆): 2.28 ± 0.1
protein stability index (ubr1∆): 2.9 ± 0.067

NSDDILSLHENYPQDEI [POP1]
protein stability index (doa10∆): 2.94 ± 0.06
protein stability index (pdr5∆): 3.12 ± 0.073
protein stability index (san1∆): 2.82 ± 0.084
protein stability index (ubr1∆): 2.92 ± 0.05
